According to paper doi:10.1101/2022.01.25.477770 (bioRxiv, 2022):

How the values were obtained:
Test in all cases: ELISA
Settings in all cases: both partners purified
[1] = target: T1, MERS-CoV prefusion-stabilized spike (S2P) (MERS-CoV EMC/2012 (GenBank AFS88936), UniProt K0BRG7, stabilised)
T1 construct: also called MERS-CoV S2P

[2] = target: T2, RaTG13 prefusion-stabilized spike (S2P) (Bat coronavirus RaTG13 (GenBank …, UniProt A0ABF7PLN6, stabilised))
T2 construct: also called RaTG13 S2P

[3] = target: T3, SHC014 prefusion-stabilized spike (S2P) (Bat SARS-like coronavirus RsSHC014 …, UniProt U5WLK5, stabilised)
T3 construct: also called SHC014 S2P

[4] = target: T4, SARS-CoV prefusion-stabilized spike (S2P) (SARS-CoV Urbani (AAP13441.1), UniProt P59594, stabilised)
T4 construct: also called SARS-CoV S2P

[5] = target: T5, WIV1 prefusion-stabilized spike (S2P) (Bat SARS-like coronavirus WIV1 …, UniProt U5WI05, stabilised)
T5 construct: also called WIV1 S2P

Measured: binding result

B1: antibody WS6 (IgG) (antibody, V domains shown)
VH: EVQFQQSGTVLARPGASVKMSCKASGYTFTNYWIHWVKQRPGQGLEYIGGTYPGNGDTTYNQKFKGKAKVTAVTPTSTAYMDLSSLTNEDSAVYYCTRTGSYFDYWGQGTTLTVSS
VL: QIVLTQSPAIMSASPGEKVTISCSATSSVSYIYWYQQRPGSSPKPWIYRTSNLASGVPVRFSGSGSGTSYSLTISNMEAEDAATYYCQQYQSYPPTFGAGTKLELK
notes: also called mAb WS6
binds: all assays above
